Results taken from article doi:10.1101/2025.11.21.687491v1.

Columns and labels:
Assay in all cases: purified protein
Conditions in all cases: GSH co-substrate, pH 7.0, 37 °C
[1] = substrate: CCCC/C=C/C(C/C=C\CCCCCCCC(=O)O)OO
[2] = substrate: CCCCC/C=C/C=C/C(CCCCCCCC(=O)O)OO
[3] = substrate: CCCCC/C=C\CC(/C=C/CCCCCCC(=O)O)OO
[4] = substrate: CCCCCC(/C=C/C=C/CCCCCCCC(=O)O)OO
[5] = substrate: CCCCCC(/C=C/C=C\CCCCCCCC(=O)O)OO

B1: AtGSTU17 (U17) (Arabidopsis thaliana) (protein)
chain: MASSDVKLIGAWASPFVMRPRIALNLKSVPYEFLQETFGSKSELLLKSNPVHKKIPVLLHADKPVSESNIIVEYIDDTWSSSGPSILPSDPYDRAMARFWAAYIDEKWFVALRGFLKAGGEEEKKAVIAQLEEGNAFLEKAFIDCSKGKPFFNGDNIGYLDIALGCFLAWLRVTELAVSYKILDEAKTPSLSKWAENFCNDPAVKPVMPETAKLAEFAKKIFPKPQA
Km [1]: 20.4 µM | kcat [1]: 2.71 s⁻¹ | Km [2]: 8.97 µM | kcat [2]: 1.13 s⁻¹ | Km [3]: 9.27 µM | kcat [3]: 1.46 s⁻¹ | Km [4]: 24.65 µM | kcat [4]: 2.44 s⁻¹ | Km [5]: 10.36 µM | kcat [5]: 2.55 s⁻¹
